Data published in US7071214B2, “Compounds and compositions for delivering active agents” (Emisphere Technologies, Inc., priority 1997, dated 2006).
Where two headings read alike, the source gives them in different places.

Set-up: species or system Rats
Settings: rat, in vivo

Mean peak serum interferon concentration (50 mg/kg) | Molecule | Mean peak serum interferon concentration (1 mg/kg) | Mean peak serum interferon concentration (po, 1 mg/kg)
2611±695 | O=C(O)CCCc1ccc(NC(=O)COc2ccccc2)cc1 [Compound 9, 4-(4-(phenoxyacetyl)aminophenyl)butyric acid] |  | 
 | interferon | 79±100 | 1951±1857
